The source of these data is paper PMC12790805, “The Structure of the Drp1 Lattice on Membrane” (Journal of molecular biology, 2025).

In data set [1] the target is Drp1 with deletion of the MoRF-1 sequence (human) (UniProt O00429). The data set is described as follows: mass photometry; Drp1 in solution; molecular weight determined by mass photometry; conditions not given.
Data set [2] concerns the molecule itself. The data set is described as above.

Where “and” joins values, the source holds several entries; their conditions need not be identical. Equal values may be shown once.

The stoichiometry N is a count of units in the complex or per binding partner. The molecule “Drp1 with deletion of the MoRF-1 sequence (from UniProt O00429-4 1-699) (enzyme)” came in with a stoichiometry N in data set [1] of 2.

B1: dynamin-related protein 1 (Drp1) isoform 3, full-length human (enzyme, UniProt O00429-4 1-699, looked up)
chain: MEALIPVINKLQDVFNTVGADIIQLPQIVVVGTQSSGKSSVLESLVGRDLLPRGTGIVTRRPLILQLVHVSQEDKRKTTGEENGVEAEEWGKFLHTKNKLYTDFDEIRQEIENETERISGNNKGVSPEPIHLKIFSPNVVNLTLVDLPGMTKVPVGDQPKDIELQIRELILRFISNPNSIILAVTAANTDMATSEALKISREVDPDGRRTLAVITKLDLMDAGTDAMDVLMGRVIPVKLGIIGVVNRSQLDINNKKSVTDSIRDEYAFLQKKYPSLANRNGTKYLARTLNRLLMHHIRDCLPELKTRINVLAAQYQSLLNSYGEPVDDKSATLLQLITKFATEYCNTIEGTAKYIETSELCGGARICYIFHETFGRTLESVDPLGGLNTIDILTAIRNATGPRPALFVPEVSFELLVKRQIKRLEEPSLRCVELVHEEMQRIIQHCSNYSTQELLRFPKLHDAIVEVVTCLLRKRLPVTNEMVHNLVAIELAYINTKHPDFADACGLMNNNIEEQRRNRLARELPSAVSRDKVASGGGGVGDGVQEPTTGNWRGMLKTSKAEELLAEEKSKPIPIMPASPQKGHAVNLLDVPVPVARKLSAREQRDCEVIERLIKSYFLIVRKNIQDSVPKAVMHFLVNHVKDTLQSELVGQLYKSSLLDDLLTESEDMAQRRKEAADMLKALQGASQIIAEIRETHLW
notes: human dynamin-related protein 1 (Drp1), isoform 3, UniProt O00429-4, full length; CBP tag removed with PreScission protease; also called Drp1-3; WT; source: E. coli BL21 (DE3) Star, purified (calmodulin agarose, SEC)
With B1, in data set [2], the “stoichiometry N” value is 2 and 4 and 6.
